Experiment [1] concerns the target tag-less B.1.351 trimeric spike protein (SARS-CoV-2 | T4 phage). Kind of experiment: SEC-MALS.
In experiment [2] the target is tag-less B.1.617.2 trimeric spike protein (SARS-CoV-2 | T4 phage). Kind of experiment: SEC-MALS.

“And” between values parts separate entries of the source, which are not always exact repeats. Equal entries are not always repeated.

Turning to tag-less B.1.351 trimeric spike protein, the stoichiometry N in experiment [1] is 3 and 6.

As to “tag-less B.1.617.2 trimeric spike protein”, the stoichiometry N in experiment [2] is 3 and 6.

(Values after publication PMC9560800.)
